Experimental data published in patent US20220056119A1 (Regeneron, published 2022).
Changes are numbered by the printed parent chain.

T1: Activin A (human, UniProt P08476 311-426)
T1 construct: Homodimer of two betaA subunits; bought (R&D Systems #338-AC); also called inhibin-betaA dimer
T1 sequence: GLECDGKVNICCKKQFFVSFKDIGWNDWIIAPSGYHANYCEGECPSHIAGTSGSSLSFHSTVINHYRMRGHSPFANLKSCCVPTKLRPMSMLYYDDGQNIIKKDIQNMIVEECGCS

T2: Activin AB (human, UniProt P08476 311-426; P09529 293-407)
T2 chain 1: T1 sequence
T2 chain 2: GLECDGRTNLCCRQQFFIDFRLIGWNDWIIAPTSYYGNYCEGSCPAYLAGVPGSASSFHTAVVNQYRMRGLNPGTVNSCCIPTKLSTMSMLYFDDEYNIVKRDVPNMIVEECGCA

T3: Activin AC (human, UniProt P55103 237-352)
T3 sequence 1: T1 sequence
T3 sequence 2: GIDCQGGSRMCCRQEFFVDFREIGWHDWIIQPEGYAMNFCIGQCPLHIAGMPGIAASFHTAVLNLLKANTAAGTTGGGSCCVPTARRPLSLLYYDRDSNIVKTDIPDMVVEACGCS

B1: H4H10430P (antibody, human IgG4, V domains shown)
VH: EVQLVESGGGLVQPGRSLRLSCKASGFAFDDFAMHWVRQAPGKGLEWVSGIVWNSGDIGYADSVKGRFTISRDNAKNSLYLQLNSLRTEDTALYFCVKDMVRGLMGFNYYGMDVWGQGTTVTVSS
VL: EIVLTQSPATLSLSPGERATLSCRASQTISTYLVWYRQRPGQAPSLLIYDASNRATDIPARFSGSGSGTDFTLTISSLEPEDFAVYYCQQRSNWPITFGQGTRLEIK
notes: also called mAb1
B2: H4H10438P2 (antibody, human IgG4, V domains shown)
VH: EVQLVESGGGLVQPGRSLRLSCAASGFTFDDNAMHWVRQPPGKGLEWVSGISWNSGSIGYADSVKGRFTISRDNAKNSLYLQMNSLRAEDTALYYCAKDINDILTGYPLFDYWGQGTLVTVSS
VL: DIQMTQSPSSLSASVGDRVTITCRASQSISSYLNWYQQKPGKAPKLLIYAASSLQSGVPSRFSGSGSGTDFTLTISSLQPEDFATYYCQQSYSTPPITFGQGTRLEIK
B3: H4H10423P (antibody, human IgG4, V domains shown)
VH: QVQLQQSGPGLLKPSQTLSLTCAISGDSVSSNSAAWSWIRQSPSRGLEWLGRTYYRANWFNDYALSVKSRITINPVTSTNHFSLQLHSVTPEDTAVYYCAREGALGYYFDSWGQGTLVTVSS
VL: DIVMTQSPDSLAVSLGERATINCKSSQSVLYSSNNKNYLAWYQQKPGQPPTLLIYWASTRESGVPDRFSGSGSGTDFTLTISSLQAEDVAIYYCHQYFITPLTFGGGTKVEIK
B4: H4H10468P2 (antibody, human IgG4, V domains shown)
VH: QVQLQESGPGLVKPSETLSLTCTVSGGSFSSHFWSWIRQPPGKGLEWIGYIYYSGGTHYNPSLESRVTISVDTSKNQFSLKLNSVTAADTAVYYCARARSGITFGGLIVPGSFDIWGQGTMVTVSS
VL: not shown
B5: H4H10448P2 (antibody, human IgG4, V domains shown)
VH: B4 VH with S28T, Y52F, S54T, H58N, Y59H, E64K, V71I, N83T, L107V
VL: not shown
B6: H4H10447P2 (antibody, human IgG4, V domains shown)
VH: B4 VH with T23S, Y52H, H58N, E64K, N83T, V92D, R99I, L107M, I115V, Q118E
VL: not shown
B7: H4H10442P2 (antibody, human IgG4, V domains shown)
VH: B4 VH with L20I, S35T, I51L, Y52H, H58S, E64K, T68I
VL: not shown

Legend:
Activin A [1] = biological target: T1, Activin A; experiment: SPR, 5 nM Activin A + 15 nM binder over hActRIIA-hFc surface
Experimental: (§1) The binding signal (RU) was measured at 150 seconds after the start of the injection, and this signal was subtracted by the measured RU value for a negative control reference surface to determine the specific binding signal.

Activin A [2] = biological target: T1, Activin A; experiment: SPR, 5 nM Activin A + 7.5 nM binder over Follistatin-288 surface
Experimental: as §1

Activin A [3] = biological target: T1, Activin A; experiment: SPR, 5 nM Activin A + 0 nM binder (no inhibitor) over Follistatin-288 surface
Experimental: as §1

Activin A [4] = biological target: T1, Activin A; experiment: SPR, 5 nM Activin A + 60 nM binder over Follistatin-288 surface
Experimental: as §1

Activin A [5] = biological target: T1, Activin A; experiment: SPR, 5 nM Activin A + 3.75 nM binder over Follistatin-288 surface
Experimental: as §1

Activin AB = biological target: T2, Activin AB; experiment: cell-based or functional assay
Activin A [6] = biological target: T1, Activin A; experiment: cell-based or functional assay
Activin AC = biological target: T3, Activin AC; experiment: cell-based or functional assay
Activin A [7] = biological target: T1, Activin A; experiment: SPR, 5 nM Activin A + 15 nM binder over Follistatin-288 surface
Experimental: as §1

Activin A [8] = biological target: T1, Activin A; experiment: SPR, 5 nM Activin A + 3.75 nM binder over hActRIIA-hFc surface
Experimental: as §1

Activin A [9] = biological target: T1, Activin A; experiment: SPR, 5 nM Activin A + 0.94 nM binder over hActRIIA-hFc surface
Experimental: as §1

Activin A [10] = biological target: T1, Activin A; experiment: SPR, 5 nM Activin A + 0.94 nM binder over Follistatin-288 surface
Experimental: as §1

Activin A [11] = biological target: T1, Activin A; experiment: SPR, 5 nM Activin A + 60 nM binder over hActRIIA-hFc surface
Experimental: as §1

Activin A [12] = biological target: T1, Activin A; experiment: SPR, 5 nM Activin A + 1.88 nM binder over Follistatin-288 surface
Experimental: as §1

Activin A [13] = biological target: T1, Activin A; experiment: SPR, 5 nM Activin A + 1.88 nM binder over hActRIIA-hFc surface
Experimental: as §1

Activin A [14] = biological target: T1, Activin A; experiment: SPR, 5 nM Activin A + 30 nM binder over hActRIIA-hFc surface
Experimental: as §1

Activin A [15] = biological target: T1, Activin A; experiment: SPR, 5 nM Activin A + 30 nM binder over Follistatin-288 surface
Experimental: as §1

Activin A [16] = biological target: T1, Activin A; experiment: SPR, 5 nM Activin A + 7.50 nM binder over hActRIIA-hFc surface
Experimental: as §1

Activin A [17] = biological target: T1, Activin A; experiment: SPR, 5 nM Activin A + 0.00 nM binder (no inhibitor) over hActRIIA-hFc surface
Experimental: as §1

| Binder | % bound RU w/ no inhibitor (Activin A [1]) [%] | % bound RU w/ no inhibitor (Activin A [2]) [%] | % bound RU w/ no inhibitor (Activin A [3]) [%] | % bound RU w/ no inhibitor (Activin A [4]) [%] | % bound RU w/ no inhibitor (Activin A [5]) [%] | IC50, inhibition of 30 pM Activin AB in A204/CAGAx12-Luc luciferase bioassay (Activin AB) [M] | IC50, inhibition of 100 pM Activin A in A204/CAGAx12-Luc luciferase bioassay (Activin A [6]) [M] | IC50, inhibition of 4 nM Activin AC in A204/CAGAx12-Luc luciferase bioassay (Activin AC) [nM] | % bound RU w/ no inhibitor (Activin A [7]) [%] | % bound RU w/ no inhibitor (Activin A [8]) [%] | % bound RU w/ no inhibitor (Activin A [9]) [%] | % bound RU w/ no inhibitor (Activin A [10]) [%] | % bound RU w/ no inhibitor (Activin A [11]) [%] | % bound RU w/ no inhibitor (Activin A [12]) [%] | % bound RU w/ no inhibitor (Activin A [13]) [%] | % bound RU w/ no inhibitor (Activin A [14]) [%] | % bound RU w/ no inhibitor (Activin A [15]) [%] | % bound RU w/ no inhibitor (Activin A [16]) [%] | % bound RU w/ no inhibitor (Activin A [17]) [%] |
| --- | --- | --- | --- | --- | --- | --- | --- | --- | --- | --- | --- | --- | --- | --- | --- | --- | --- | --- | --- |
| B1 | 2 | 1 | 100 | 1 | 15 | 1e-10 | 6.1e-11 | 0.93 | 1 | 19 | 81 | 79 | 2 | 59 | 62 | 2 | 1 | 3 | 100 |
| B2 | – | – | – | – | – | – | 2.6e-10 | – | – | – | – | – | – | – | – | – | – | – | – |
| B3 | 112 | 97 | 100 | 93 | 103 | – | 2e-10 | – | 96 | 111 | 112 | 120 | 116 | 122 | 114 | 114 | 94 | 110 | 100 |
| B4 | – | – | – | – | – | 2.3e-09 | 3.9e-11 | 3.4 | – | – | – | – | – | – | – | – | – | – | – |
| B5 | – | – | – | – | – | – | 4.6e-11 | – | – | – | – | – | – | – | – | – | – | – | – |
| B6 | – | – | – | – | – | – | 7.8e-11 | – | – | – | – | – | – | – | – | – | – | – | – |
| B7 | 113 | 3 | 100 | 3 | 6 | 2.2e-09 | 5.6e-11 | 6.5 | 3 | 95 | 114 | 73 | 118 | 46 | 114 | 117 | 3 | 105 | 100 |
